In patent US20080124335A1 (NATIONAL CEREBRAL AND CARDIOVASCULAR CENTER, published 2008):
No end group written: not given here.

Tests used:
human TGR1 [1] = biological target: T1, human TGR1 (human, UniProt Q9GZQ4 1-415); assay: radioligand competition: crude membrane fraction (10 µg) of CHO cells expressing human TGR1, 50 pM [^125I-Tyr^0]-NMS, filtration
Procedure: (§1) The receptor binding test was conducted by an improvement of the Gottschall, et al. method (Gottschall, P. E., et al., Endocrinology, 127, 272, 1990). A crude cell membrane fraction was prepared from human FM-3 or human TGR1-expressed CHO cells. Also, human NMS ([Tyr⁰]-NMS) added with Tyr at the N terminus was radioactively labeled with ¹²⁵I and then purified on HPLC. The crude cell membrane fraction (10 μg) and the radiolabeled peptide (50 pM) were reacted at room temperature for 2 hours in a buffer supplemented with 0.05% CHAPS and 1% BSA in the presence of a competitive peptide. The reaction product was filtered to separate the bound from the unbound radiolabeled peptide. The radioactivity was measured with a TopCount liquid scintillation counter (Packard).

human FM-3 [2] = biological target: T2, human FM-3 (human, UniProt Q9HB89 24-426); assay: radioligand competition: crude membrane fraction (10 µg) of CHO cells expressing human FM-3, 50 pM [^125I-Tyr^0]-NMS, filtration
T2 sequence: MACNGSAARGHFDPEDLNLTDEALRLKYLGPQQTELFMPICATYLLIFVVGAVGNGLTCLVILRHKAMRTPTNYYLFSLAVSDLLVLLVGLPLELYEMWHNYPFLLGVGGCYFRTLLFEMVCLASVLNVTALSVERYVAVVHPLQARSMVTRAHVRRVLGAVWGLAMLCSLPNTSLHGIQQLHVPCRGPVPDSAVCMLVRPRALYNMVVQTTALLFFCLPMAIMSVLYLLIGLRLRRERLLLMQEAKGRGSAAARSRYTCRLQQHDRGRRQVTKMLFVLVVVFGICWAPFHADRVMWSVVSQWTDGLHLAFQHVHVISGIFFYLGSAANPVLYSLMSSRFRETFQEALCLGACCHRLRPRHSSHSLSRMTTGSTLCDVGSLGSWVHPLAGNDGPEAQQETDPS
Procedure: as §1

human FM-3 [3] = biological target: T2, human FM-3; assay: cell-based or functional assay
human TGR1 [4] = biological target: T1, human TGR1; assay: cell-based or functional assay

T1 sequence (Q9GZQ4 other isoform, or with tags, fused parts or gaps): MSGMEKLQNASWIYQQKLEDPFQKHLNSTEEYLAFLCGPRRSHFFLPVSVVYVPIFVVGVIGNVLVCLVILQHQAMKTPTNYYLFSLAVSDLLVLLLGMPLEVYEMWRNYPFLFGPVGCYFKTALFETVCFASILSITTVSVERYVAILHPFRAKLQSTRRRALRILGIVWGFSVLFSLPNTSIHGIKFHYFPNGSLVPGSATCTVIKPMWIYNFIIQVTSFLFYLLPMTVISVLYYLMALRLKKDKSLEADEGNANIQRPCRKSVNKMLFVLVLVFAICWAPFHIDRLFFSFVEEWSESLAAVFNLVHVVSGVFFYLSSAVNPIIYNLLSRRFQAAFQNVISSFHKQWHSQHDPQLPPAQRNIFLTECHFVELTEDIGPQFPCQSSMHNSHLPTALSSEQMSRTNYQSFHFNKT

In the case of ILQRGSGTAAVDFTKKDHTATWGRPFFLFRPRN (ends and bridges not checked, also called human NMS; NMS) [human neuromedin S], the IC50 (human TGR1 [1]) is reported as 0.1 nM, the IC50 (human FM-3 [2]) is reported as 1.2 nM and the “intracellular Ca ion level increase (calcium-mobilization assay, FLIPR), EC50” value (human FM-3 [3]) is reported as 0.065 nM. For the same binder, the “intracellular Ca ion level increase (calcium-mobilization assay, FLIPR), EC50” value (human TGR1 [4]) was 0.091 nM.
